Here are results for twelve molecules from patent US20240287138A1 (Merck Sharp & Dohme, published 2024).

First the molecules themselves.
T1: TNFR1 on THP-1 Lucia NF-κB reporter cells (UniProt P19438 30-455, limits assumed)
T1 sequence (looked up): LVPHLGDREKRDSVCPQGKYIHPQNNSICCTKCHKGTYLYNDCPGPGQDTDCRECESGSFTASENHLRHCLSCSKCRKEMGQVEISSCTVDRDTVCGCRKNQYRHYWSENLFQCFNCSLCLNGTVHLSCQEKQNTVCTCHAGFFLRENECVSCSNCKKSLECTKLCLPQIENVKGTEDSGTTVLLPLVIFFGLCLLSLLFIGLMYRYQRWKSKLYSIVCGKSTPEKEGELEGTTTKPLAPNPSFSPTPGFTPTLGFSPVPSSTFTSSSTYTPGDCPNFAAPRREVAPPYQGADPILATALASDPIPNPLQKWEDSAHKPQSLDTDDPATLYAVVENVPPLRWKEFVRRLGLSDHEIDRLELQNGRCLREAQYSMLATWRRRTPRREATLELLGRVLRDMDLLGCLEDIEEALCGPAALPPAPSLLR

T2: TNFR1 on THP-1 Lucia NF-kB reporter cells (UniProt P19438 30-455, limits assumed)
T2 sequence (looked up): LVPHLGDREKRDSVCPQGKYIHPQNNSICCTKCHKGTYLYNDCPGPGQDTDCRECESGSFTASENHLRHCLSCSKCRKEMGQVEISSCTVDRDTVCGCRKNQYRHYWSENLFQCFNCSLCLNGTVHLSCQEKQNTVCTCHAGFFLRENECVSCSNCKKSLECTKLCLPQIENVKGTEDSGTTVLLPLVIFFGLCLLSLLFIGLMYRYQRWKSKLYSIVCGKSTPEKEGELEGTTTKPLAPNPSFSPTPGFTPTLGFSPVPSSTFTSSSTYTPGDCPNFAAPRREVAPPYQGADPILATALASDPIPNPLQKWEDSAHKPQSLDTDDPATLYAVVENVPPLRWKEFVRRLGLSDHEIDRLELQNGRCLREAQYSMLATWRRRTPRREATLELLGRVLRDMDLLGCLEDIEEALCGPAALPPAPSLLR

T3: C-terminally 6His-tagged human soluble TNFR1 (sTNFR1, residues 1-211), purified from a Sf21 baculovirus … (human)
T3 construct: ID NO; The text says 'residues 1-211'; also called sTNFR1-6His; ID NO; P1
T3 chain: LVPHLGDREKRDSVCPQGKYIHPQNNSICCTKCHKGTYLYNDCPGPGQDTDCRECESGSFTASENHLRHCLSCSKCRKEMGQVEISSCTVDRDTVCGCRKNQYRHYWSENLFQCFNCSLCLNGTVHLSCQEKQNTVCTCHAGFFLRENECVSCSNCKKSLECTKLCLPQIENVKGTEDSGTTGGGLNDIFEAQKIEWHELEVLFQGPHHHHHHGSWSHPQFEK

B1: SEQ ID NO. 287 (Example No. 287) macrocyclic peptide (peptide)
peptide: cyclo([bhcLeu][Nle][4Pal][Pip(4-aza)][Trp(7-aza)][dPro(trans-4-NMe2)]N[Phe(4-COOH)][Trp(7-CN)][αMeS][Phe(4-COOH)][RbOHPhe4CONH2][Sar][Trp(βS-Me,7-OMe)])
SMILES: CCCC[C@@H]1NC(=O)[C@@H]2CC[C@@H](C2)NC(=O)[C@H]([C@@H](C)c2c[nH]c3c(OC)cccc23)NC(=O)CN(C)C(=O)[C@H]([C@H](O)c2ccc(C(N)=O)cc2)NC(=O)[C@H](Cc2ccc(C(=O)O)cc2)NC(=O)[C@](C)(CO)NC(=O)[C@H](Cc2c[nH]c3c(C#N)cccc23)NC(=O)[C@H](Cc2ccc(C(=O)O)cc2)NC(=O)[C@H](CC(N)=O)NC(=O)[C@H]2C[C@H](N(C)C)CN2C(=O)[C@H](Cc2c[nH]c3ncccc23)NC(=O)[C@@H]2CNCCN2C(=O)[C@H](Cc2ccncc2)NC1=O
B2: SEQ ID NO. 98 (peptide)
peptide: cyclo([bhcLeu][Ahp′][SbMe4Pal]HW[dHyp]N[Phe(4-COOH)][Trp(7-CN)][αMeS][Phe(4-CONH2)][Phe(4-CONH2)][Sar][Trp(βS-Me,7-OMe)])
modifications: reading uncertain; also: printed as cyclo(bhcLeu-Ahp-SbMe4Pal-H-W-dProt4OH-N-Phe4COOH-Trp7CN-aMeS-Phe4CONH2-Phe4CONH2-Sar-SbMeW7OMe)
B3: SEQ ID NO. 78 (peptide)
peptide: cyclo([bhcLeu][Nle][4Pal][Pipt5OH]W[dHyp][RbOHAsn][4Pal][Trp(7-CN)][αMeS][Phe(4-CONH2)][Phe(4-COOH)][Sar][Trp(βS-Me,7-OMe)])
modifications: reading uncertain; also: printed as cyclo(bhcLeu-Nle-4Pal-Pipt5OH-W-dProt4OH-RbOHAsn-4Pal-Trp7CN-aMeS-Phe4CONH2-Phe4COOH-Sar-SbMeW7OMe)
B4: SEQ ID NO. 7 (peptide)
peptide: cyclo([bhcLeu][Nle][4Pal][Pip2c]W[NMeE]N[4Pal][Trp(7-Cl)][αMeS][Phe(2-F,4-COOH)]Y[Sar][Trp(βS-Me,7-OMe)])
modifications: reading uncertain; also: printed as cyclo(bhcLeu-Nle-4Pal-Pip2c-W-NMeE-N-4Pal-Trp7Cl-aMeS-Phe2F4COOH-Y-Sar-SbMeW7OMe)
B5: SEQ ID NO. 76 (peptide)
peptide: {CH2CO}-[Nle][4Pal][Pip2c]W[d(αMeP)]N[4Pal][Trp(7-Cl)][αMeS][Phe(4-COOH)]Y[Sar][Trp(βS-Me,7-OMe)]C-NH2
modifications: thioether N-14 (inferred); reading uncertain; also: printed as cyclo(ClAc-Nle-4Pal-Pip2c-W-daMeP-N-4Pal-Trp7Cl-aMeS-Phe4COOH-Y-Sar-SbMeW7OMe-C)-NH2
B6: SEQ ID NO. 75 (peptide)
peptide: {CH2CO}-[Nle][4Pal][Pip2c]W[NMeE][Qdm][4Pal][Trp(7-Cl)][αMeS][Phe(4-COOH)]Y[Sar][Trp(βS-Me,7-OMe)]C-NH2
modifications: thioether N-14 (inferred); reading uncertain; also: printed as cyclo(ClAc-Nle-4Pal-Pip2c-W-NMeE-Qdm-4Pal-Trp7Cl-aMeS-Phe4COOH-Y-Sar-SbMeW7OMe-C)-NH2
B7: SEQ ID NO. 100 (peptide)
peptide: cyclo([bhcLeu][Nle][4Pal][Pip2c]W[NMeE]N[40Me3Pal][Trp(7-Cl)][αMeS][Phe(4-COOH)]Y[Sar][Trp(βS-Me,7-OMe)])
modifications: reading uncertain; also: printed as cyclo(bhcLeu-Nle-4Pal-Pip2c-W-NMeE-N-40Me3Pal-Trp7Cl-aMeS-Phe4COOH-Y-Sar-SbMeW7OMe)
B8: SEQ ID NO. 69 (peptide)
peptide: cyclo([cAcBu][Nle][4Pal][Pip2c]W[NMeE]N[4Pal][Trp(7-Cl)][αMeS][Phe(4-COOH)]Y[Sar][Trp(βS-Me,7-OMe)])
modifications: reading uncertain; also: printed as cyclo(cAcBu-Nle-4Pal-Pip2c-W-NMeE-N-4Pal-Trp7Cl-aMeS-Phe4COOH-Y-Sar-SbMeW7OMe)
B9: SEQ ID NO. 65 (peptide)
peptide: {CH2CO}-[Nle][PyrimAla][Pip2c][Trp(7-aza)][NMeE]N[4Pal][Trp(7-Cl)][αMeS][Phe(4-COOH)]Y[Sar][Trp(βS-Me,7-OMe)]C-NH2
modifications: thioether N-14; reading uncertain; also: printed as cyclo(ClAc-Nle-PyrimAla-Pip2c-Trp7az-NMeE-N-4Pal-Trp7Cl-aMeS-Phe4COOH-Y-Sar-SbMeW7OMe-C)-NH2
B10: SEQ ID NO. 71 (peptide)
peptide: {CH2CO}-[Nle][4Pal][Pipc4OH]W[NMeE]N[4Pal][Trp(7-Cl)][αMeS][Phe(4-COOH)]Y[Sar][Trp(βS-Me,7-OMe)]C-NH2
modifications: thioether N-14 (inferred)
B11: SEQ ID NO. 88 (peptide)
peptide: cyclo([bhcLeu][Nle][4Pal][Pipt5OH]W[dHyp]N[AlaPyrim4COOH][Trp(7-Cl)][αMeS][Phe(4-CONH2)][Phe(4-COOH)][Sar][Trp(βS-Me,7-OMe)])
modifications: reading uncertain; also: printed as cyclo(bhcLeu-Nle-4Pal-Pipt5OH-W-dProt4OH-N-AlaPyrim4COOH-Trp7Cl-aMeS-Phe4CONH2-Phe4COOH-Sar-SbMeW7OMe)
B12: biotinylated peptide SEQ ID NO. 1 (TR-FRET probe): cyclo(ClAc-F-Y-S-W-Sar-N-Y-W-S-Y-Y-Sar-W-C)-G-Aea-K(N-Biotin)-NH2 (peptide)
peptide: {CH2CO}-FYSW[Sar]NYWSYY[Sar]WCG[AEA]K(Biotin)-NH2
modifications: thioether N-14
SMILES: CN1CC(=O)N[C@@H](CC(N)=O)C(=O)N[C@@H](Cc2ccc(O)cc2)C(=O)N[C@@H](Cc2c[nH]c3ccccc23)C(=O)N[C@@H](CO)C(=O)N[C@@H](Cc2ccc(O)cc2)C(=O)N[C@@H](Cc2ccc(O)cc2)C(=O)N(C)CC(=O)N[C@@H](Cc2c[nH]c3ccccc23)C(=O)N[C@H](C(=O)NCC(=O)NCCOCC(=O)N[C@@H](CCCCNC(=O)CCCC[C@@H]2SC[C@@H]3NC(=O)N[C@@H]32)C(N)=O)CSCC(=O)N[C@@H](Cc2ccccc2)C(=O)N[C@@H](Cc2ccc(O)cc2)C(=O)N[C@@H](CO)C(=O)N[C@@H](Cc2c[nH]c3ccccc23)C1=O
notes: Synthetic thioether macrocycle made by Procedure A, with a Gly-Aea spacer and Lys(biotin) on the carboxy group of the C-terminal cysteine; also called biotin-tagged B0372 peptide

Numbered stars: 1 amine (or outer) side, 2 acyl side, 3 side chain; on linkers, the order of the positions; unused ones are H or OH. Bridge positions count the residues as written; N and C are the ends. Square brackets hold non-standard residues; d marks the D form. Primed or numbered codes have the meaning given here. * marks the point of attachment. RbOHPhe4CONH2 = (2S,3R)-2-amino-3-(4-carbamoylphenyl)-3-hydroxypropanoic acid, NC(=O)c1ccc([C@@H](O[*:3])[C@H](N[*:1])C(=O)[*:2])cc1; bhcLeu = (1R,3S)-3-aminocyclopentane-1-carboxylic acid, O=C([C@@H]1CC[C@H](N[*:1])C1)[*:2]; Trp(βS-Me,7-OMe) = COc1cccc2c([C@H](C)[C@H](N)C(=O)O)c[nH]c12; Phe(2-F,4-COOH) = N[C@@H](Cc1ccc(C(=O)O)cc1F)C(=O)O; dPro(trans-4-NMe2) = CN(C)[C@@H]1CN[C@@H](C(=O)O)C1; Trp(7-CN) = N#Cc1cccc2c(C[C@H](N)C(=O)O)c[nH]c12; Trp(7-Cl) = N[C@@H](Cc1c[nH]c2c(Cl)cccc12)C(=O)O; Biotin = O=C1N[C@H]2[C@H](CS[C@H]2CCCCC(=O)*)N1; Phe(4-CONH2) = NC(=O)c1ccc(C[C@H](N)C(=O)O)cc1; Phe(4-COOH) = N[C@@H](Cc1ccc(C(=O)O)cc1)C(=O)O; Trp(7-aza) = N[C@@H](Cc1c[nH]c2ncccc12)C(=O)O; Pip(4-aza) = O=C(O)[C@@H]1CNCCN1; 4Pal = N[C@@H](Cc1ccncc1)C(=O)O; NMeE = CN[C@@H](CCC(=O)O)C(=O)O; dHyp = O=C(O)[C@H]1C[C@H](O)CN1; d(αMeP) = C[C@]1(C(=O)O)CCCN1; 40Me3Pal = not defined here; Pipt5OH = not defined here; αMeS = C[C@](N)(CO)C(=O)O; Nle = CCCC[C@H](N)C(=O)O; Pip2c = not defined here; cAcBu = not defined here; Ahp′ = not defined here; Qdm = not defined here; AEA = NCCOCC(=O)O; Sar = CNCC(=O)O

In one test the target is T1, TNFR1 on THP-1 Lucia NF-κB reporter …. The experiment in a line: cell-based or functional assay.
In the case of B1, the “THP-1 IC50” value was determined as 1.7 nM.

Another test concerns the target T2, TNFR1 on THP-1 Lucia NF-kB reporter …. The experiment in a line: cell-based or functional assay.
Consider B2, for which the “THP-1 IC50” value turned out to be 1.5 nM.

For the molecule B3, the “THP-1 IC50” value is 0.7 nM.

Regarding B4, the “THP-1 IC50” value worked out at 1.6 nM.

Consider B5, for which the “THP-1 IC50” value is 4.7 nM.

As for B6, the “THP-1 IC50” value is 6.1 nM.

Turning to B7, the “THP-1 IC50” value was found to be 1.3 nM.

Consider B8, for which the “THP-1 IC50” value worked out at 1.6 nM.

With B9, the “THP-1 IC50” value turned out to be 4 nM.

Regarding B10, the “THP-1 IC50” value amounted to 2.8 nM.

Regarding B11, the “THP-1 IC50” value was found to be 1.9 nM.

The next test addresses T3, C-terminally 6His-tagged human soluble …. Put plainly: TR-FRET binding assay, probe peptide with sTNFR1-6His (0.25 nM). (In TR-FRET formats the signal depends on donor and acceptor labels being close together.)
The molecule B12 gave a Kd of roughly 100 nM.

One may read the Kd as the constant that tells how readily two partners part at equilibrium.
